For one molecule, Kd results are on record in publication PMC6764986.

The target of the experiment is ALFA-tagged target immobilized for SPR (TST-NEDD8-ALFA or GFP-ALFA). The experiment in a line: SPR; ALFA-tagged ligand (TST-NEDD8-ALFA or GFP-ALFA) coupled by EDC-NHS to HC1000m chip; NbALFA as analyte; 20 °C, 40 µL/min, PBS with 0.002% Tween-20 pH 7.4; dissociation followed for > 7 h. A general note: Surface plasmon resonance follows binding to a sensor surface in real time, without labels.

B1: NbALFA (non-tagged) (VHH)
VHH: EVQLQESGGGLVQPGGSLRLSCTASGVTISALNAMAMGWYRQAPGERRVMVAAVSERGNAMYRESVQGRFTVTRDFTNKMVSLQMDNLKPEDTAVYYCHVLEDRVDSFHDYWGQGTQVTVSS
In turn, B1 displayed a dissociation constant (Kd) of 0.026 nM.

For orientation: Kd means the constant that tells how readily two partners part at equilibrium. Low values mean a tighter complex, high ones a looser complex.
